The record followed here is the domain aggregation screens of Martell et al. (2025).
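Also: 20 min heating vs room temperature control held 20 min.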

The data set in a line: soluble fraction after stress (log2 fold change); higher = more stays soluble; pooled small domains, quantitative proteomics. The conditions noted are these: stress: 75 degC.
Take “HMSEQLVGTVGHITVGTARTASPAEAKFLDAFEQPHYLLVEPIEPKDIFQQGDKVVLVKKQHHSWLATRYI”: the “soluble fraction (log2)” value was -1.2. Turning to “HMSEQTLEDVRRLIEHLPESQKEVVKMRYYQDLSFKEIADLKGISINTALGRMHYAINNMRKMAKEYGL”, the “soluble fraction (log2)” value was -1.94.

For the sequence “HMSEQVQLQAQVEDDLIGKRLDQVVAQLFPDYSRSRLQGWIKDGSLTVDGESRRPRDKMMGGEVVRVEATL”, the “soluble fraction (log2)” value was determined as 0.107.

Take “HMSEQVTMIDVEGKTETEAKKALEDLGLKVEITYESADAAAGTVIGQDVKAGSTVSEGSRVTLTVSGQ”: the “soluble fraction (log2)” value came out at 0.528. With “HMSERQTGTVKWFNNAKGFGFITMADRPDDIFVHFRAIQGDGYRSLNEGEEVEFSLVEGPKGLQAEEVTK” the figure was -0.0682. For “HMSESAGKAFDLLFYLAKAGETVSLARLSRETGMNKATALRYLNVLESKGVVERSKLGWTLGLSLFELGSK”, the “soluble fraction (log2)” value was -2.96. With “HMSESIFTLYGDEKFEKIRYYLKERGFITLDALARFDFDELLFVPGVSELLISEAKQLFSRYDTSSLAAKE” the figure was -0.584. For the sequence “HMSETAEFIIQVNGKVRAKLQLPTDISKEEIQKLALADENVQKYLNGEPRKIIFPPNTRLVSIV”, the “soluble fraction (log2)” value is -0.315. To “HMSETEEWTVEGGQAGDRIDRHVAAMLGDDVSRSQVQQWIRAGRVTVNGRAVKPSDTVEEGDRVAVDLPEP” belongs -0.189; to “HMSETVYQYVARQLRDMLGSGEIPVGQQLPTYRELAKRFQVSLSVIQRAMRQLKAEAVVSIAHGQGVKAVR”, -1.16. With “HMSEVPVLVAKTDIKELELIDDRKVTLINVPQKFKMPGSFNSPEEVYNTIAAVPIKEGEQITKPRVTWP” the figure was 0.0951.

Regarding “HMSEVSEILTRARFFAGVKTDAELSTLLKIPYGTLIGWKTRKNIPESRIAQMALILGIRRDTLIPA”, the “soluble fraction (log2)” value is -1.86. With “HMSEYIFGKNVVKEAFNNPSRIEEIYVLDKNMEFVSLAKKYHIKYTVITSSEMNKMVSGNHQGVVALVK” the figure was -2.1; with “HMSFDENEALRKALDVFWEKGYDGTSLSDLTEAMGINKPSLYATFGNKDQLFLKAIEMYENR”, -1.4; with “HMSFDTFKKVFSNLVEKSGYSDAEIARRLGVNRSTISRWKSGEQSPPLPKVKEIANFFGVSPMVFVD”, -0.41.

Consider “HMSFFNGNQMKILRKKLQLNQEEMGEKLGIKKSYVSQLENNRKEITEEIDQILQELEQEYQDKM”, for which the “soluble fraction (log2)” value was -0.642. To “HMSFGESLKKLSIALNSIRKLATTDAGKKDPKVADLLGQIRDTFNSYRTHLRKNYPDLYSGIKNQL” belongs -0.977; to “HMSFGKKLRSLRQEKKLSQVELSKKLNVTSQALSQYELGKRIPDAEMIIRIADFFDVSVDYLLDRT”, -1.69; to “HMSFGWESLENKEGVADTDLHPSGWVRIEDSRIFVVSEGDFINKGSKVTVLTVDGNRVVVRELI”, -2.1. To “HMSFNISPTKKLILELIMNGTAAVEAIAVKAGISKGMAYNHLRELRSMGYITDEGGYKITDSGRLAV” belongs -2.39; to “HMSFNNHYEILQVQPSADREVIEAAAKALLKKHHPDLGGRNTITSHIVQAKKVLTDTSQRADFDARLRERL”, -0.135. With “HMSFNSQENKSVLWQFLLENNFFIGLSDKKFNKVKDIFEKNIQSISIVNDSISNKNKILIQKMMEELELL” the figure was -3.38; with “HMSFPDTYFKGNKVIGLSYNDLKKFLNNAGYSKFDEEVEEWGEKRVSIEDDMVDFYLEDDKVVSI”, -0.361; with “HMSFPFLMPNLEGLQLDQVRVILEENGLEIGQENYQPDSKFGPGTIINHQPSVDTVVQTGQKVNLQISGTD”, 0.126. Turning to “HMSFSSLSNDILSEIQKDNNITYDELSEKLQKDRATIYRNMKKLVENGLLKRVGGRKSGHWEIIE”, the “soluble fraction (log2)” value was -0.102. To “HMSFVDFYGLFTTELQRLAELPVTADELIKNTGLHKSQLTDWLKRAEEDGVVKKLNRPVRYQVEKK” belongs -1.66. To “HMSGAQIQQLLESRAPQPGMNPDMIVRRKTYMNNVFNALKGALLRVANGSSPEEVKTEVDAAIQVDPDKL” belongs 0.353.
